Source: PMC1390689

Target: T1, GSThPif1ΔN (Homo sapiens, UniProt Q9H611 167-641)
T1 sequence: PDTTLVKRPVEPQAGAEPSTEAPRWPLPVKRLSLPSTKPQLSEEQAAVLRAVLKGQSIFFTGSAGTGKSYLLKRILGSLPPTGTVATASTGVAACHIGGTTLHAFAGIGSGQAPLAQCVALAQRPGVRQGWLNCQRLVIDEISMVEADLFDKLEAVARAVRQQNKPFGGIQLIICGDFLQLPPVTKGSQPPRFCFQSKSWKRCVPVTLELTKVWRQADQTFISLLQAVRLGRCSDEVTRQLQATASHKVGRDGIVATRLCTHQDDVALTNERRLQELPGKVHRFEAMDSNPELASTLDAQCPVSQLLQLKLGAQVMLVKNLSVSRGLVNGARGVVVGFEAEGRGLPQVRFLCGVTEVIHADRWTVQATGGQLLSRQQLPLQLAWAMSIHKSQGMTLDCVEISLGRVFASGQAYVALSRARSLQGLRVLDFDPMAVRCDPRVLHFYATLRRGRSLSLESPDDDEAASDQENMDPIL
Experiment: EMSA

TTAGGGTTAGGGTTAGGG (ssDNA) [tel18]
binding result: binds
